Results on four molecules are retold here after PMC7994332, “A Bifan Motif Shaped by ArsR1, ArsR2, and Their Cognate Promoters Frames Arsenic Tolerance of Pseudomonas putida” (Frontiers in Microbiology, 2021).

Usually Kd stands for a measure of binding affinity in units of concentration. In general, stoichiometry N refers to a count of units in the complex or per binding partner.

Data set [1] deals with 6His-ArsR2 (Pseudomonas putida KT2440). Description: EMSA. As to conditions: no arsenite; 'gross KD'; EMSA: TRRG buffer (20 mM Tris-HCl pH 7.5, 50 mM KCl, 2 mM beta-mercaptoethanol, 10% glycerol), BSA, 25 ug/ml herring sperm DNA, 0.3 nM probe, 20 min 30 C …. (In EMSA bound probe runs differently from free probe, usually more slowly.)
Data set [2] deals with 6His-ArsR1 (Pseudomonas putida KT2440). The data set can be described thus: EMSA. As to conditions: no arsenite; 'gross KD'; EMSA: TRRG buffer (20 mM Tris-HCl pH 7.5, 50 mM KCl, 2 mM beta-mercaptoethanol, 10% glycerol), BSA, 25 ug/ml herring sperm DNA, 0.3 nM probe, 20 min 30 C ….
Data set [3] concerns the molecule itself. Description: AUC; sedimentation velocity, 20°C, 48,000 rpm, 20 mM NaH2PO4, 100 mM KCl, 2 mM β-mercaptoethanol, pH 8.0, with or without 2 mM arsenite; data shown for 20 μM protein (methods: 42 μM 6His-ArsR1, 36 μM 6His-ArsR2); s = 2.1 ± 0.1 S.

Pars2 probe: in data set [1], the dissociation constant (Kd) is 500 nM. The molecule Pars1 probe displayed a dissociation constant (Kd) in data set [2] of 200 nM.

B1: 6His-ArsR2 (natural protein, Pseudomonas putida KT2440, UniProt Q88JD1 1-115, looked up)
chain: MITPPDVFKSLSDETRARATLLIASLGELCVCELMCALNDSQPKISRHLAQLRSNGMLLDRRQGQWVYYRLNPELPSWVHEMLQVTLQANSQWLADNALRLKNMDGRPVRDSVCC
notes: ArsR2, As(III)-responsive transcriptional repressor of the ars2 operon (SmtB/ArsR family), Pseudomonas putida KT2440; protein of 115 amino acids; 364-bp PCR fragment that includes the arsR2 gene cloned BamHI/HindIII into pQE32; Theoretical monomer mass with tag 14,519 Da; source: E. coli M15 (pREP4, pQE32-ArsR2), purified (Ni-NTA agarose, dialysed)
Regarding B1, the “stoichiometry N” value in data set [3] is 2.

B2: 6His-ArsR1 (natural protein, Pseudomonas putida KT2440, UniProt Q88LK1 11-128, looked up)
chain: MREILTPPIVFKCLADDTRARMTLLIAREGELCVCELTHALELSQPKISRHLAQLREAGILMDRRKGQWVYYRLHPEVPQWVDAMLKGVVDANQEWLSPDALRLAEMGERPQSPVACA
notes: ArsR1, As(III)-responsive transcriptional repressor of the ars1 operon (SmtB/ArsR family), Pseudomonas putida KT2440; protein of 118 amino acids; 373-bp PCR fragment that includes the arsR1 gene cloned BamHI/HindIII into pQE32; Theoretical monomer mass with tag 14,869 Da; source: E. coli M15 (pREP4, pQE32-ArsR1), purified (Ni-NTA agarose, dialysed)
Regarding B2, the “stoichiometry N” value in data set [3] was 2.
